The target in the experiment is T1, IRF3 (human (endogenous in HEK293T)), Q14653.
T1 chain: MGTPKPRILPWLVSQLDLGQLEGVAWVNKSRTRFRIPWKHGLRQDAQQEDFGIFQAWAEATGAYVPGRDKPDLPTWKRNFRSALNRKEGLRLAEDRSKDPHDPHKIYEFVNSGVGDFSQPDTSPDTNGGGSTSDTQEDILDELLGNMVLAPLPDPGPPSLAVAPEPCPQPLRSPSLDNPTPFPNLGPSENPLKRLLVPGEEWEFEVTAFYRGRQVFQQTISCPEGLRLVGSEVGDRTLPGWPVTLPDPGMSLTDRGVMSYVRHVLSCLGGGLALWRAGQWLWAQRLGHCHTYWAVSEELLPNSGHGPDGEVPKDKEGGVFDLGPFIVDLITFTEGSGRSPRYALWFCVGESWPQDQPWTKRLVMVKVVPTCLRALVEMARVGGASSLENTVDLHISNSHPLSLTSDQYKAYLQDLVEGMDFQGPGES
As to the kind of experiment: native gel or EMSA; cell-free assay: HEK293T S1 crude lysate with vRNA, 30 °C, 1 h; Native-PAGE and immunoblotting of IRF3. To be noted: remark: other sources report otherwise.

B1: IRF3, Q14653 1-427 (natural protein)
chain: MGTPKPRILPWLVSQLDLGQLEGVAWVNKSRTRFRIPWKHGLRQDAQQEDFGIFQAWAEATGAYVPGRDKPDLPTWKRNFRSALNRKEGLRLAEDRSKDPHDPHKIYEFVNSGVGDFSQPDTSPDTNGGGSTSDTQEDILDELLGNMVLAPLPDPGPPSLAVAPEPCPQPLRSPSLDNPTPFPNLGPSENPLKRLLVPGEEWEFEVTAFYRGRQVFQQTISCPEGLRLVGSEVGDRTLPGWPVTLPDPGMSLTDRGVMSYVRHVLSCLGGGLALWRAGQWLWAQRLGHCHTYWAVSEELLPNSGHGPDGEVPKDKEGGVFDLGPFIVDLITFTEGSGRSPRYALWFCVGESWPQDQPWTKRLVMVKVVPTCLRALVEMARVGGASSLENTVDLHISNSHPLSLTSDQYKAYLQDLVEGMDFQGPGES
On to B1, for which the stoichiometry N worked out at 2.
